Assay results as given in patent publication US20230357415A1 (AJOU UNIVERSITY INDUSTRY ACADEMIC COOPERATION FOUNDATION, published 2023).
Like-named read-outs stand apart in the source and are kept apart here.

T1: sIL-5Rα antigen protein (Sinobio 10392-H08H) (Homo sapiens (Human), UniProt Q01344 21-342)
T1 construct: Bought protein immobilised in the indirect ELISAs; also called soluble IL-5Rα; CD125
T1 sequence: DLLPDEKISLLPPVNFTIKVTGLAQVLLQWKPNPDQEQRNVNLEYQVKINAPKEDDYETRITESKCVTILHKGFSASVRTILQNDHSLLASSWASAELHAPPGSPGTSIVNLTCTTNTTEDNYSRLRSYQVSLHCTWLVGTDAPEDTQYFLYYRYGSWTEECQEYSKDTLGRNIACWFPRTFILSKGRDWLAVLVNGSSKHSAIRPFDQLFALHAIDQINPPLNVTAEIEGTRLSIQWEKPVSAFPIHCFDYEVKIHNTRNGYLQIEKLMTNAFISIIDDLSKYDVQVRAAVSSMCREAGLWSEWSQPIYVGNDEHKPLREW

T2: purified sIL-5Rα (Asp1-Asn313 of SEQ ID NO: 66) (Homo sapiens (Human), UniProt Q01344 21-333)
T2 construct: also called the purified sIL-5Rα
T2 sequence: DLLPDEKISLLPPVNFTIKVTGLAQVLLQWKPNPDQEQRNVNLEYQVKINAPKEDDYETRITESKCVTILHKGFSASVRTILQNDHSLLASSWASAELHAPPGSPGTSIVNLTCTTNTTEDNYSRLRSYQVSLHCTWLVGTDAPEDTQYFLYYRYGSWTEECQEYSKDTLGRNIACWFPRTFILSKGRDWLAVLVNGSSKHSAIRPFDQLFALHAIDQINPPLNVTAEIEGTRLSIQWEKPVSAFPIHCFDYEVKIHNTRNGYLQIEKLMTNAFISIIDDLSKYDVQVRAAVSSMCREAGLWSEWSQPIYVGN


What was measured:
[1] = molecular target: T1, sIL-5Rα antigen protein (Sinobio …); test: indirect ELISA; plate-coated sIL-5Rα, antibody 100 nM, anti-human Fc-HRP, absorbance at 450 nm
Protocol: (§1) The binding specificity of the antibody was determined using indirect ELISA. A multi-antigen ELISA was performed using four structurally different antigenic double-stranded DNA (dsDNA), insulin, the macromolecule hemocyanin, and the membrane component, cardiolipin. Specifically, sIL-4Rα antigen protein (50 ng/well, sinobio; 10402-H08H), sIL-5Rα antigen protein (50 ng/well, sinobio; 10392-H08H), dsDNA (25 ng/well, D4522; Sigma), insulin (125 ng/well, 19278; Sigma), hemocyanin (125 ng/well, H8283; Sigma), and cardiolipin (1250 ng/well, C0563; Sigma) proteins were immobilized on a 96-well plate at room temperature for 1 hour, and blocked using 2% skim milk containing 0.1% PBST (0.1% Tween20, pH 7.4, 137 mM NaCl, 10 mM phosphate, 2.7 mM KCl) at room temperature for 1 hour. After discarding the solution and then washing the same three times with 0.1% PBST, the antibody was diluted to 100 nM, added to the blocked plate in an amount of 25 μl/well, and allowed to react at room temperature for 1 hour. After discarding the solution and washing the same three times with 0.1% PBST, an anti-human Fc-HRP antibody (1:8000) as a secondary antibody was added in an amount of 25 μl/well and reacted at room temperature for 1 hour. After discarding the solution and washing three times with PBST, a TMB solution was added in an amount of 25 μl/well, color development was induced at room temperature for 2 minutes, the reaction was stopped using H₂SO₄ (2N), and the absorbance at 450 nm was measured with an ELISA reader.

[2] = molecular target: T3, sIL-4Rα (soluble IL-4Rα) antigen protein (human, UniProt P24394 26-232); test: BLI (Octet QKe), antibody on AHC sensor, sIL-4Rα in solution, 1:1 model
T3 construct: The ELISA and Octet assays used the bought protein (Sinobio 10402-H08H); also called CD124; sinobio 10402-H08H
Protocol: Antigen affinity of antibodies was analyzed through variation in the refractive index occurring when the antibody bound to the antigen was detached therefrom while the AHC (anti-human IgG Fc capture) sensor chip moved in the order of kinetic buffer, antibody dilution solution, kinetic buffer, antigen dilution solution, and kinetic buffer. Affinity was calculated with Octet Data Analysis software 11.0 in a 1:1 binding model.

[3] = molecular target: T4, insulin (Homo sapiens (Human), UniProt P01308 25-54; P01308 90-110, Mature two-chain hormone: A and B chains joined by two interchain disulfides, plus one intrachain disulfide in the A chain; the letters do not carry these.); test: indirect ELISA; plate-coated insulin, antibody 100 nM, anti-human Fc-HRP, absorbance at 450 nm
T4 construct: Irrelevant antigen of the multi-antigen specificity ELISA; also called insulin (125 ng/well, 19278; Sigma)
Protocol: as §1

[4] = molecular target: T2, purified sIL-5Rα (Asp1-Asn313 of SEQ ID …); test: BLI (Octet QKe), antibody on AHC sensor, purified sIL-5Rα in solution, 1:1 model
Protocol: Specifically, lx kinetic buffer was prepared by diluting 10× kinetic buffer (ForteBio, 18-1105) in PBS. […] Affinity was calculated with Octet Data Analysis software 11.0 in a 1:1 binding model.

[5] = molecular target: T4, insulin; test: indirect ELISA; plate-coated insulin, antibody 100 nM, anti-human Fc-HRP, absorbance at 450 nm; remark: listed apart in the source
Protocol: as §1, with “of anti-IL-5Rα humanized antibodies” for “of the antibody”, “ng/well, Sinobio;” for “ng/well, sinobio;”, “[…],” for “25 μl/well,”, “hour. […]” for “hour. After discarding the solution and washing the same three times with 0.1% PBST, an anti-human Fc-HRP antibody (1:8000) as a secondary antibody was added in an amount of 25 μl/well and reacted at room temperature for 1 hour.”

[6] = molecular target: T3, sIL-4Rα (soluble IL-4Rα) antigen protein; test: indirect ELISA; plate-coated sIL-4Rα, antibody 100 nM, anti-human Fc-HRP, absorbance at 450 nm
Protocol: as §1, with “of anti-IL-5Rα humanized antibodies” for “of the antibody”, “ng/well, Sinobio;” for “ng/well, sinobio;”, “[…],” for “25 μl/well,”, “hour. […]” for “hour. After discarding the solution and washing the same three times with 0.1% PBST, an anti-human Fc-HRP antibody (1:8000) as a secondary antibody was added in an amount of 25 μl/well and reacted at room temperature for 1 hour.”

T4 sequence (P01308 25-54 limits assumed, chain 1 of 2): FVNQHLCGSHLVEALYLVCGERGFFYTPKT
T4 sequence (P01308 90-110 limits assumed, chain 2 of 2): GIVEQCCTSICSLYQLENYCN

binding result [1]	Kd [2] [nM]	koff [2] [s⁻¹]	kon [2] [M⁻¹ s⁻¹]	binding result [3]	Kd [4] [nM]	koff [4] [s⁻¹]	kon [4] [M⁻¹ s⁻¹]	binding result [5]	binding result [6]	Binder
binds	–	–	–	–	–	–	–	–	–	4R34.1.19 antibody (antibody, V domains shown, Parent anti-IL-4Rα antibody, tested as IgG1 and captured through human Fc; also called anti-IL-4Rα antibody (4R34.1.19)) VH: EVQLLESGGGLVQPGGSLRLSCAASGFTFSRHAMAWVRQAPGKGLEWVSAITSSGRSIYYADSVKGRFTISRDNSKNTLYLQMNSLRAEDTAVYYCARVHRAFDYWGQGTLVTVSS VL: QSVLTQPPSASGTPGQRVTISCSGSPLFPDSGSFNWYQQLPGTAPKLLIYADSHRPSGVPDRFSGSKSGTSASLAISGLRSEDEADYYCGTWDYSLSGYVLGGGTKLTVLG
no binding (tested: 100 nM)	0.0997	0.000162	1.63e+06	no binding (tested: 100 nM)	–	–	–	–	–	4R.N4 (antibody, V domains shown, Converted from scFab to IgG1 and expressed in HEK293F) VH: EVQLLESGGGLVQPGGSLRLSCAASGFTFSRHAMAWVRQAPGKGLEWVSAITMSGRGIYYADSVKGRFTISRDNSKNTLYLQMNSLRAEDTAVYYCARVHRAFDYWGQGTLVTVSS VL: QSVLTQPPSASGTPGQRVTISCSGSPLFPDSGSFNWYQQLPGTAPKLLIYADSHRPSGVPDRFSGSKSGTSASLAISGLRSEDEADYYCGTWDYSLSAYVLGGGTKLTVLG
no binding (tested: 100 nM)	0.0431	6.07e-05	1.55e+06	no binding (tested: 100 nM)	–	–	–	–	–	4R.N7 (antibody, V domains shown, Converted from scFab to IgG1 and expressed in HEK293F) VH: EVQLLESGGGLVQPGGSLRLSCAASGFTFSRHAMAWVRQAPGKGLEWVSAITASGRSIYYADSVKGRFTISRDNSKNTLYLQMNSLRAEDTAVYYCARVHRAFDYWGQGTLVTVSS VL: QSVLTQPPSASGTPGQRVTISCSGSPLFPDSGSFNWYQQLPGTAPKLLIYADSHRPSGVPDRFSGSKSGTSASLAISGLRSEDEADYYCGTWDYSLSSYVLGGGTKLTVLG
no binding (tested: 100 nM)	0.0705	0.000126	1.79e+06	no binding (tested: 100 nM)	–	–	–	–	–	4R.N6 (antibody, V domains shown, Converted from scFab to IgG1 and expressed in HEK293F) VH: EVQLLESGGGLVQPGGSLRLSCAASGFTFSRHAMAWVRQAPGKGLEWVSAITMSGRSIYYADSVKGRFTISRDNSKNTLYLQMNSLRAEDTAVYYCARVHRAFDYWGQGTLVTVSS VL: QSVLTQPPSASGTPGQRVTISCSGSPLFPDSGSFNWYQQLPGTAPKLLIYADSHRPSGVPDRFSGSKSGTSASLAISGLRSEDEADYYCGTWDYSLNSYVLGGGTKLTVLG
no binding (tested: 100 nM)	0.17	0.000338	1.99e+06	no binding (tested: 100 nM)	–	–	–	–	–	4R.N1 (antibody, V domains shown, Converted from scFab to IgG1 (pcDNA3.4 vector with IgG1 constant regions) and expressed in HEK293F) VH: EVQLLESGGGLVQPGGSLRLSCAASGFTFSRHAMAWVRQAPGKGLEWVSAITASGRSIYYADSVKGRFTISRDNSKNTLYLQMNSLRAEDTAVYYCARVHRAFDYWGQGTLVTVSS VL: QSVLTQPPSASGTPGQRVTISCSGSPLFPDSGSFNWYQQLPGTAPKLLIYADSHRPSGVPDRFSGSKSGTSASLAISGLRSEDEADYYCGTWDYSLNRYVLGGGTKLTVLG
no binding (tested: 100 nM)	0.0686	0.000139	2.02e+06	no binding (tested: 100 nM)	–	–	–	–	–	4R.N3 (antibody, V domains shown, Converted from scFab to IgG1 and expressed in HEK293F) VH: EVQLLESGGGLVQPGGSLRLSCAASGFTFSRHAMAWVRQAPGKGLEWVSAITMSGRSIYYADSVKGRFTISRDNSKNTLYLQMNSLRAEDTAVYYCARVHRAFDYWGQGTLVTVSS VL: QSVLTQPPSASGTPGQRVTISCSGSPLFPDSGSFNWYQQLPGTAPKLLIYADSHRPSGVPDRFSGSKSGTSASLAISGLRSEDEADYYCGTWDYSLNRYVLGGGTKLTVLG
–	–	–	–	–	6.13	0.000171	28000	no binding (tested: 100 nM)	no binding (tested: 100 nM)	5R65.39 (antibody, IgG1, V domains shown, IgG1) VH: QVQLVQSGAEVKKPGSSVKVSCKASGYTFTSYWINWVRQAPGQGLEWIGHIYPNKNENYYNHKFKDKATLTVDKSTNTAYMELSSLRSEDTAVYYCTREFYGRSRYSAMDYWGQGTTLTVSS VL: DIQMTQSPSTLSASVGDRVTITCKASQNVGTAVAWYQQKPGKAPKLLIYWASTRHTGVPDRFSGSGSGTDFTLTISSLQPDDFATYYCQQFGRYPYTFGSGTKVEVK
–	–	–	–	–	7.26	0.000181	24900	no binding (tested: 100 nM)	no binding (tested: 100 nM)	5R65.45 (antibody, IgG1, V domains shown, IgG1) VH: QVQLVQSGAEVKKPGSSVKVSCKASGYTFTSYWINWVRQAPGQGLEWIGHIYPNKNENYYNHKFKDKATLTVDKSTNTAYMELSSLRSEDTAVYYCTREYYGRSYYNAMDYWGQGTTLTVSS VL: DIQMTQSPSTLSASVGDRVTITCKASQNVGTAVAWYQQKPGKAPKLLIYWASTRHTGVPDRFSGSGSGTDFTLTISSLQPDDFATYYCQQFGRYPYTFGSGTKVEVK
